This passage reports EC50 (luciferase reporter in HEK293T cells transfected with plasmid FJ773212 / pGL4.33) results from US20260001926A1.

In the assay the target is fibroblast growth factor receptor (FGFR). The assay is described as follows: cell-based or functional assay.

Consider “Bovine wild-type FGF2 (SEQ ID NO: 1) (from UniProt P03969 11-155) (ligand)”, for which the EC50 (luciferase reporter in HEK293T cells transfected with plasmid FJ773212 / pGL4.33) turned out to be 0.2 ng/ml.
